Test results reported in the supplement of paper PMC9876800.

System: peptide library, one residue held at a place counted from the S/T acceptor
Experiment: relative phosphorylation of the sub-library (ratio to the mean residue at this position); human; higher = residue favoured
How it was run: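 Human or orthologue kinase constructs, purified and recombinant, were incubated under kinase-specific conditions in 384-well plates with biotinylated degenerate peptide sub-libraries. Each sub-library fixed one residue at one position around a central Ser/Thr. Incubations lasted 90 min with peptides at 50 μM and 50 μM ATP spiked with γ-32P-ATP, after which spots on streptavidin membranes were phosphorimaged and quantified by densitometry. Relative sub-library phosphorylation is a ratio to the mean residue at that position.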

Sequence of SIK3, construct: aa1-307 (Q9Y2K2 1-307, looked up): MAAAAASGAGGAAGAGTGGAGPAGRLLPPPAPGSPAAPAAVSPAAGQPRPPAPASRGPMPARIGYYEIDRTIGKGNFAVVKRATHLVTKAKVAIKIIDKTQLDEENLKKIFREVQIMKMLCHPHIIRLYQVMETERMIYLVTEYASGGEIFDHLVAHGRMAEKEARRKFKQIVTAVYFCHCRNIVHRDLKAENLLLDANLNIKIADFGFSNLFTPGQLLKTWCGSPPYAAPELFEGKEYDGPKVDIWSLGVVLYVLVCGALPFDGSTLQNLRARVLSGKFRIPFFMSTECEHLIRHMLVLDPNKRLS
Sequence of GRK2, construct: Full length (P25098 whole entry, looked up): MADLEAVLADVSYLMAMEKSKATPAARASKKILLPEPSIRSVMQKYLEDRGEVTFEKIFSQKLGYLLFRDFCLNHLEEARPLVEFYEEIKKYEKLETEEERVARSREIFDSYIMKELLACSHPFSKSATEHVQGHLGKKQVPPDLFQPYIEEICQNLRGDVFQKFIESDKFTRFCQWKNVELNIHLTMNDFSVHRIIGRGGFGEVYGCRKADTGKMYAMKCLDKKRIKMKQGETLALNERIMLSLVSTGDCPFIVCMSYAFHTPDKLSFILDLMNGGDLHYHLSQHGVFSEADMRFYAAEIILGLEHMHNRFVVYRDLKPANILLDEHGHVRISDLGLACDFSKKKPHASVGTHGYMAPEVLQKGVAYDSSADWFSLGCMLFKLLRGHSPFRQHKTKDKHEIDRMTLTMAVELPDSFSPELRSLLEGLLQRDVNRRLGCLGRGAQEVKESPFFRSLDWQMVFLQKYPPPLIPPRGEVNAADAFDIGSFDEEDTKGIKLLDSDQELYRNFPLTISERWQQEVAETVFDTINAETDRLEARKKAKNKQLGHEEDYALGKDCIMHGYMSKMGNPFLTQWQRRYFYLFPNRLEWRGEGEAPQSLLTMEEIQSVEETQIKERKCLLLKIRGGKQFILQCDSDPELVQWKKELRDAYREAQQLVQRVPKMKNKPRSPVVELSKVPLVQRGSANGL

SIK3, construct: aa1-307 (from UniProt Q9Y2K2)
relative phosphorylation
Settings | at +1 | at +2 | at +3 | at +4 | at -1 | at -2 | at -3 | at -4 | at -5
A fixed | 0.723 | 1.19 | 0.654 | 0.581 | 1.02 | 1.77 | 0.786 | 1.12 | 1.32
D fixed | 0.537 | 0.686 | 2.07 | 0.508 | 0.631 | 0.339 | 0.328 | 0.773 | 0.8
E fixed | 0.747 | 0.583 | 0.643 | 0.374 | 0.495 | 0.272 | 0.353 | 0.768 | 0.692
F fixed | 0.727 | 0.687 | 0.914 | 0.724 | 0.497 | 1.06 | 0.698 | 0.867 | 1.06
G fixed | 0.646 | 0.775 | 0.505 | 0.546 | 2.72 | 1.28 | 0.684 | 1.36 | 1.16
H fixed | 0.747 | 1.14 | 1.36 | 0.678 | 0.857 | 1.3 | 1.11 | 1.19 | 0.856
I fixed | 1.12 | 0.923 | 0.555 | 2.59 | 0.364 | 0.507 | 0.399 | 0.637 | 0.861
K fixed | 0.88 | 0.578 | 0.728 | 0.56 | 1.77 | 1.17 | 2.13 | 1.21 | 1.02
L fixed | 1.21 | 0.987 | 0.824 | 4.53 | 0.691 | 0.364 | 0.497 | 0.662 | 1.58
M fixed | 2.13 | 1.08 | 0.759 | 1.55 | 0.781 | 0.591 | 0.649 | 0.991 | 1.2
N fixed | 1.29 | 1.4 | 3.64 | 0.597 | 1.25 | 0.65 | 0.57 | 0.895 | 0.733
P fixed | 0.373 | 1.17 | 0.359 | 0.637 | 1.53 | 0.538 | 0.939 | 1.16 | 0.954
Q fixed | 1.84 | 0.988 | 0.853 | 0.481 | 1.29 | 0.526 | 0.704 | 0.8 | 0.725
R fixed | 1.1 | 0.956 | 0.688 | 0.459 | 1.4 | 1.45 | 4.8 | 1.73 | 1.5
V fixed | 1.28 | 0.926 | 0.488 | 1.18 | 0.463 | 0.645 | 0.427 | 0.645 | 0.695
W fixed | 0.795 | 1.97 | 0.851 | 0.581 | 0.486 | 2.92 | 1.26 | 1.21 | 0.973
Y fixed | 0.877 | 0.961 | 1.1 | 0.42 | 0.756 | 1.62 | 0.658 | 0.987 | 0.868
pThr fixed | 0.992 | 0.79 | 0.348 | 0.35 | 0.294 | 0.444 | 0.527 | 0.647 | 0.667
pTyr fixed | 0.487 | 0.297 | 0.335 | 0.324 | 0.589 | 0.442 | 0.522 | 0.627 | 0.782

GRK2, construct: Full length (from UniProt P25098)
relative phosphorylation
Settings | at +1 | at +2 | at +3 | at +4 | at -1 | at -2 | at -3 | at -4 | at -5
A fixed | 0.812 | 1.17 | 0.782 | 0.874 | 0.876 | 0.822 | 1.03 | 0.901 | 0.914
D fixed | 1.1 | 0.929 | 1.42 | 1.35 | 1.14 | 1.38 | 1.9 | 1.41 | 1.34
E fixed | 1.47 | 0.883 | 1.37 | 1.25 | 1.34 | 3.01 | 2.28 | 1.54 | 1.13
F fixed | 1.27 | 1.18 | 1.13 | 1.02 | 1.02 | 0.961 | 0.768 | 0.915 | 1.14
G fixed | 0.766 | 0.755 | 0.817 | 0.928 | 0.726 | 0.718 | 0.766 | 0.897 | 0.839
H fixed | 0.977 | 1.09 | 1.02 | 1.07 | 1.06 | 0.813 | 0.831 | 0.969 | 0.931
I fixed | 1.03 | 1.18 | 0.892 | 0.892 | 0.862 | 0.724 | 0.732 | 0.847 | 0.898
K fixed | 0.79 | 0.747 | 0.778 | 0.84 | 0.919 | 0.741 | 0.815 | 0.965 | 0.912
L fixed | 0.883 | 0.886 | 1.01 | 0.935 | 0.928 | 0.832 | 0.742 | 0.899 | 0.88
M fixed | 1.08 | 0.965 | 0.981 | 0.975 | 0.971 | 0.872 | 0.8 | 0.951 | 0.931
N fixed | 0.879 | 0.969 | 0.996 | 1.07 | 1.04 | 0.926 | 0.924 | 0.99 | 0.95
P fixed | 0.791 | 0.627 | 0.765 | 0.926 | 1.24 | 0.931 | 0.864 | 0.975 | 0.896
Q fixed | 1.12 | 0.872 | 0.939 | 0.994 | 0.978 | 0.928 | 0.889 | 0.944 | 0.91
R fixed | 0.838 | 0.768 | 0.791 | 0.843 | 0.979 | 0.974 | 1.43 | 0.998 | 1.04
V fixed | 1.15 | 1.37 | 0.855 | 0.854 | 0.911 | 0.701 | 0.665 | 0.813 | 0.918
W fixed | 1.04 | 1.3 | 1.25 | 1.18 | 0.876 | 0.832 | 0.789 | 1.06 | 1.19
Y fixed | 1.01 | 1.31 | 1.22 | 0.998 | 1.12 | 0.843 | 0.787 | 0.932 | 1.18
pThr fixed | 7.25 | 1.18 | 1.22 | 1.95 | 1.18 | 3.63 | 3.44 | 2.09 | 1.27
pTyr fixed | 2.37 | 1.57 | 1.47 | 1.62 | 2.11 | 14.3 | 3.56 | 2.58 | 1.57
